Measured values taken from the DeepSol protein solubility set.

Assay: soluble on expression in E. coli; label from the status in PepcDB or PDB records

| Sequence | soluble on expression in E. coli |
| --- | --- |
| MSLIGVIGVKRNVDIAIREKLALYPKKHKKYVGELLNSFKEVVILNTCNRTEIYFNCTEEISEDEIFDKIFNVFNWNDDLKKYMFLSKEKRAVTHLMEVICGFHSRILGEDQILGQIKGAYKTAISDNSISSELQKMFEIAIACGKKFKTECKMFEVPVSSVSISINSALLKGCRKFMVLGYGEIGKLAIKHLLSHKVECIYLIVRDKSKASDLEGEIVEVLDFNEKNQVINEIDCIVSCTAAPHTVVRNEDIKTEGETIHIYDLAVPRDVDKELSEKERVILKDIDEISKIDDKNKKIRKERMEEYKHIVEESIDEFLNWLKIREVSSKIRNIKIRENEICSERIKTFSNKGNGENAKLAERMIKSTADAYVNRAIELLKSEALKGSDSYCAEIIEKIFLTEGHHHHHH | soluble |
| MSLIIKKLKQSHSVKILCEVFNVHRSSYHYWLKRPALINAETIKLRSLISEAHAASNGSAGARTIADIVTNQGVKLSRYRATKLMRTLGLVSCQEPKHRYRKASQEHIDVPNHLSRQFAVTAPNEVWAGDVTYIWTGNRWMYLAVVIDLFARKVIGWSMSLSPDSRLTGKALSMAYESRGKPKGVMFHSDQGSHYTSRKYRQLLWRFQIKQSLSRRGNCWDNAPIERFFRSLKTEWVPTVGYRSFAEAQQEITRYIIGYYCQLRPHQYNGGLTPNESERLYWENSKTVANFSEGHHHHHH | not soluble |
| MSLIKLIATDMDGTLLNAAHEISQPNIDAIKYAQEQGITVVIATGRAFYEAQAPVADTDLTVPYICLNGAEVRDETFNVMSTSHLNKSLVHKITNVLKDAGIYYQVYTSRAIYTEDPQRDLDIYIDIAERAGQHANVERIKNGIQRRIDNGTLKVVDNYDAIENIPGELIMKILAFDGNLEKIDKASKILAESPNLAISSSSRGNIEITHSDAQKGIALETIAERLGIEMKDVMAIGDNLNDLSMLEKVGYPVAMENGAEEVKKIAKYVTDTNENSGVGKAIMKLLREQEGHHHHHH | soluble |
| MSLILCCGEALIDMLPRQTTLGEAGFAPYAGGAVFNTAIALGRLGVPSAFFTGLSDDMMGDILRETLRASKVDFSYCATLSRPTTIAFVKLVDGHATYAFYDENTAGRMITEAELPALGADCEALHFGAISLIPEPCGSTYEALMTREHETRVISLDPNIRPGFIQNKQSHMARIRRMAAMSDIVKFSDEDLAWFGLEGDEDTLARHWLHHGAKLVVVTRGAKGAVGYSANLKVEVASERVEVVDTVGAGDTFDAGILASLKMQGLLTKAQVASLSEEQIRKALALGAKAAAVTVSRAGANPPFAHEIGLEGHHHHHH | soluble |
| MSLIRVAIADDHQTLIDGISLRFDGNESIDLVFSANDGKDFLKQLKITPVDLVITDLKMPKMDGVTLAREIKRDFKNVKVIVLSMFDQPDVINKMVDVDVDGYILKTSSLDELVTAIGEVNKGKKYFDKHLHGITSLFDVNSTSSKTSLSNAEKDILNLIAEGKTSQEIANERACAVSTIHTHRRNMAHKLELYGKGELLRYAMDKKYNFEEGHHHHHH | soluble |
| MSLISPIIRLSHVTFQTSSAARVIKEFVTKYQFHPFAARGLDGGSPCQVALKNGGVVFMVNENTPKTHENSVLLYDFPLQIPFPDTACNVTFEVEDVSGLYHHLVDEGCQLLLPPTELHDDFGSVTYCIVKSVVGNVSHTLIDRTHYRSSFLPGFEYLKNSTHNLSSGNMTHVDHIAYTCPRGTSPSILEWYRRCFGFQHFPLSKGEDPERGFEIIGPRIGLRLTSLVCPKLSKECKLVLAESLPQEGINQVDEFMQQHTGGGIQHIGLSTPDIFKAAEDLSKLGVCFAIQPSSYYSETKKQKEIYSVGLEPQMLAQFGILMDSATDDILSNDAPKKFLLQVFAEPLFSKNSAFLELIERRSAEGFGEGNIRALWRSMQDLQEDQTVKEQEGEGHHHHHH | soluble |
| MSLIVRRYLKQDLCAVARLEVRSFEIGPYDKEYLREVLENASSISYIAQISDKIVGYIVAMPLNSQEIDIESIATDPDFRKRSIGTRLIARIENESKSLGYRNIILEVRKENIEAISFYSRLGFNIKEFIVNYYEEYYRGSRDAYRMVKSLSEGHHHHHH | not soluble |
| MSLKARRGLSASDLINLNADRLQCLLSGHPKFVFNKGRRGWGKEALERYAPEYANTFRLHWLAVKREHMIWRCDNEMDIHQLLTAAMDPQEFARFSQVWQENGLDHNWLPLPVHPWQWQEKIATDFIADFGEGRMVSLGEFGDQWLAQQSLRTLTNASRRGGLDIKLPLTIYNTSCYRGIPGRYIAAGPLASRWLQQVFATDATLVQSGAVILGEPAAGYVSHEGYAALARAPYRYQEMLGVIWRENPCRWLKPDESPFLMATLMEWDENNQPLAGAYIDRSGLDAETWLTQLFRVVVVPLYHLLCRYGVALIAHGQNITLAMKEGVPQRVLLKDFQGDMRLVKEEFPEMDSLPQEVRDVTSRLSADYLIHDLQTGHFVTVLRFISPLMVRLGVPERRFYQLLAAVLSDYMKKHPQMSERFALFSLFRPQIIRVVLNPVKLTWPDLDGGSRMLPNYLEDLQNPLWLVTQEYESEGHHHHHH | soluble |
| MSLKDFRPLILVAEDDDSNFKLIKAIIGKKCDILWAKNGEEMLNLYREHTQDAHAILMDIKMPIMNGLEATRIIREEGASLPIIMQTAYAFSSDRENAMQAGASEVLVKPITVSALRGCLSSYFPEIKWEGHHHHHH | soluble |
| MSLKDVSLSSFDAHDLDLDKFPEVVRDRLTQFLDAQELTIADIGAPVTDAVAHLRSFVLNGGKRIRPLYAWAGFLAAQGHKNSSEKLESVLDAAASLEFIQACALIHDDIIDSSDTRRGAPTVHRAVEADHRANNFEGDPEHFGVSVSILAGDMALVWAEDMLQDSGLSAEALARTRDAWRGMRTEVIGGQLLDIYLESHANESVELADSVNRFKTAAYTIARPLHLGASIAGGSPQLIDALLHYGHDIGIAFQLRDDLLGVFGDPAITGKPAGDDIREGKRTVLLALALQRADKQSPEAATAIRAGVGKVTSPEDIAVITEHIRATGAEEEVEQRISQLTESGLAHLDDVDIPDEVRAQLRALAIRSTERREGHHHHHH | soluble |
| MSLKEFLIKKIEFTLFEVCIPDIGADPSGFGVWYEPGPGTPQKRFAVRIFTDEGPVGVYVPPRSRATVIMPAAIALAHFLIRKPALERERHYQTMRRITKHVGEAGIGALDIALWDLGGKISGQPISQMLGGHRRKLPSYASTIPGDEHPKGLSSSEAYADFAQQCLEIGYKGYKMHGWKEGNPQRESEMIRAVARQVGGSMDIMYDAACHLKTLTDAIRVGRVCDEHELLWYEDPYADGGLTIRGHRALKEKVRTPVMIGEHVRNPEIHTELLVSGATDFGRVDPDYDGGITGSYKAAMAAESLGYDVEVHSCGPAMRQLMAALSISNYYEINLVHPIGPNPWQLPVYLNGYSDELDCIDREGMVDVSQSPGLGVDYDWEWIEKNSLERIIVDKAKEGHHHHHH | soluble |
| MSLKEKKLVYLNSKQYEDAYRKKSVLLNDINNINEQYFDLKNSIKDYNKSSKDFESTKRQMEDELILNKMELGTLDVVGEGVEITLDDSGNQVSASSEDANFREIRTIYQVIHDFDMRAVINDIKCSGAEAISINGQRIVSNTEIYCNAEFLLINGVKISAPFNIKAIGNKNKLKTYMLASGNYLQRLKRRSIYVNLKTVNDVKIPAFKGELRHSNIKSKEGHHHHHH | soluble |
| MSLKELIALKRKVGLPGVTFAAMADGIWVLQVLPGAGIEKTGLRKGHQIVGVGGKPLAGNKLEDLFKAIEANNITDTMSRGSSERMYSRMTRDTKTQGPVVVLNVKQSRQQEKPFLILCKKEMFRSKIIEIEEDEFEDEVLKAPLPVAVTFWGDSCEPCKEFVPVLEAESAKYAGKVKFVNINVDGNRKLADQLAVKEVPALMVYKGGSAVATATGKLPREKVAEMLQDAAGREGHHHHHH | soluble |
| MSLKFLLTTAQGIEDIAKREVSLLLKKLGISFQIEEKPLGIEGRLLLEAEKAYYVDEKGRKRELSISTYLNENSRLLHRVIIEIASEKFNGIEKDESEEALKRIKDFVSSLPVEQFVKVSETFAVRSFRKGDHNITSIDIARTVGEAIFERLSRFGTPLVNLDHPAVIFRAELIKDVFFLGIDTTGDSSLHKRPWRVYDHPAHLKASIANAMIELAELDGGSVLDPMCGSGTILIELALRRYSGEIIGIEKYRKHLIGAEMNALAAGVLDKIKFIQGDATQLSQYVDSVDFAISNLPYGLKIGKKSMIPDLYMKFFNELAKVLEKRGVFITTEKKAIEEAIAENGFEIIHHRVIGHGGLMVHLYVVKGIITITTDPNSSSVDKLAAALEHHHHHH | soluble |
